Percent block of bioactivity, RG bioassay, 600 pg leukocyte IFN data for one molecule are collected here from JP2010500380A.

The target in this experiment is 白血球IFN (leukocyte IFN, Sigma I-2396). The experiment in a line: cell-based or functional assay.

B1: ACO-1 (antibody, V domains shown)
VH: QVQLQQPGAELVKPGASVKLSCKASGYTFTNYWMHWVKQRPGQGLEWIGEINPSHGRTIYNENFKSKATLTVDKSSITAFMQLSSLTSEDSAVYFCARGGLGPAWFAYWGQGTLVTVSA
VL: QIVLTQSPAIMSASPGEKVTLTCSAGSSVDSSYLYWYQQKPGSSPKLWIYSTSNLASGVPARFSGSGSGTSYSLTISSMEAEDAASYFCHQWSSYPFTFGSGTKLEIKR
In turn, B1 showed a percent block of bioactivity, RG bioassay, 600 pg leukocyte IFN greater than 50%.
